For this assay, the target named is T1, GRK2 (Homo sapiens, UniProt P25098).
T1 construct: fused on or other part: hexahistidine tag
T1 sequence (P25098 1-669 limits assumed): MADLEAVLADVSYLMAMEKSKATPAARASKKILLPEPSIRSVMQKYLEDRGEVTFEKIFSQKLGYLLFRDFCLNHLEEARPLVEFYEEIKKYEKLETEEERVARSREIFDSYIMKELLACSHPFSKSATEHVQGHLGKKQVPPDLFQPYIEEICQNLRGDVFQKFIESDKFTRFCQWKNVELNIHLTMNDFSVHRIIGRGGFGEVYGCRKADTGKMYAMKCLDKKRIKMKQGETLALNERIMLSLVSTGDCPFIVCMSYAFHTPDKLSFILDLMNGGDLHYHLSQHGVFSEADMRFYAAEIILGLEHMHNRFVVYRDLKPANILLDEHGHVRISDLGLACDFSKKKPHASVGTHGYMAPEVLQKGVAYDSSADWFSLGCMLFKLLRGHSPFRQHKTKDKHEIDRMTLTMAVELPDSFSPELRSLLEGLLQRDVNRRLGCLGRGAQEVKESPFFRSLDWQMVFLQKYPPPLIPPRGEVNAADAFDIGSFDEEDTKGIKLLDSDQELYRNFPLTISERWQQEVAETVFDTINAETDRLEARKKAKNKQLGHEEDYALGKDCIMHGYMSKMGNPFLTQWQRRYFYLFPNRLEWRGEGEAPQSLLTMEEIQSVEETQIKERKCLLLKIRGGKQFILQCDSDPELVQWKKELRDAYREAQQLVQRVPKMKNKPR
In words: In vitro phosphorylation assay: GRK2-mediated phosphorylation of phosducin. In kind it is biochemical. The following applies: n=6-7; read-out: IC50, inhibition of GRK2-induced phosducin phosphorylation. An excerpt:
Recombinant human GRK2 protein and GRK2-S670A protein was expressed in and purified from Spodoptera frugiperda (Sf9) cells by the baculoviral expression system. The cDNAs encoding hexahistidine-tagged human GRK2 (ADRBK1) GRK2-S670A were subcloned into the pFastBac1 expression plasmid (INVITROGEN™, THERMO FISHER SCIENTIFIC®, Waltham, Mass., USA) using the Sal I/Hind III restriction sites, recombinant baculovirus was generated by the Bac-To-Bac Baculovirus expression system (THERMO FISHER SCIENTIFIC®, Waltham, Mass., USA). Sf9 cells were infected with recombinant baculoviruses at an MOI of 2-3, 48 h after infection cells were harvested by centrifugation, lysed with lysis buffer (300 mM NaCl, 50 mM HEPES, pH 7.5 supplemented with 1% NP40, 1 mM PMSF and protease inhibitor cocktail) and applied to Ni-NTA chromatography. After overnight incubation at 4° C., unbound proteins were removed by washing with lysis buffer (20× column volumes) followed by 1× column volume of 30 mM imidazole-containing lysis buffer. Bound GRK2 was eluted by 300 mM imidazole in lysis buffer, desalted by PD10 column chromatograpy, supplemented with 20% glycerol and stored at −80° C. for further use. […]

B1: RKIP: raf kinase inhibitor protein, a dual-specific GRK2 and Raf kinase inhibitor (protein, UniProt P30086 2-187, looked up)
Phosphatidylethanolamine-bindi …: PVDLSKWSGPLSLQEVDEQPQHPLHVTYAGAAVDELGKVLTPTQVKNRPTSISWDGLDSGKLYTLVLTDPDAPSRKDPKYREWHHFLVVNMKGNDISSGTVLSDYVGSGPPKGTGLHRYVWLVYEQDRPLKCDEPILSNRSGDHRGKFKVASFRKKYELRAPVAGTCYQAEWDDYVPKLYEQLSGK
Usually IC50 stands for the point on the concentration scale where inhibition reaches its midpoint. As to B1, the IC50 was found to be 950 nM.
